# Assay results reported in the RNAGym collection of RNA variant scans (doi:10.7554/elife.90254).
# B1: LINE1-mini (parent)
# chain: GGCAGAGCUCAACACAGCGUGGCAAAGUGGCUGUGGCUAGACUGCC
# Variants of: B1
# Assay: self-cleavage, relative activity (ratio to wild type); higher = more cleavage; in vitro, sequencing; the parent is a self-cleaving ribozyme
row,Variant,self-cleavage
1,GGCAAAGCUCAACACAGCGUGGCAAAGUGGCUGUGGCGAGACUGCC,0.02
2,GGCAAAGCUCAACACAGCGUGGCAAAGUGGCUGUGGCAAGACUGCC,0.16
3,GGCAAAGCUCAACACAGCGUGGCAAAGUGGCUGUGGCCAGACUGCC,0.09
4,GGCACAGCUCUACACAGCGUGGCAAAGUGGCUGUGGCUAGACUGCC,0.03
5,GGCACAGCUCGACACAGCGUGGCAAAGUGGCUGUGGCUAGACUGCC,0.05
6,GGCACAGCUCCACACAGCGUGGCAAAGUGGCUGUGGCUAGACUGCC,0.04
7,GGCACAGCUCAACACAGCGUGGCAAUGUGGCUGUGGCUAGACUGCC,0.06
8,GGCACAGCUCAACACAGCGUGGCAAGGUGGCUGUGGCUAGACUGCC,0.05
9,GGCACAGCUCAACACAGCGUGGCAACGUGGCUGUGGCUAGACUGCC,0.06
10,GGCACAGCUCAACACAGCGUGGCAAAGUGGUUGUGGCUAGACUGCC,0.05
11,GGCACAGCUCAACACAGCGUGGCAAAGUGGAUGUGGCUAGACUGCC,0.08
12,GGCACAGCUCAACACAGCGUGGCAAAGUGGGUGUGGCUAGACUGCC,0.06
13,GGCACAGCUCAACACAGCGUGGCAAAGUGGCUGUGGCUAGAUUGCC,0.05
14,GGCACAGCUCAACACAGCGUGGCAAAGUGGCUGUGGCUAGAAUGCC,0.09
15,GGCACAGCUCAACACAGCGUGGCAAAGUGGCUGUGGCUAGAGUGCC,0.46
16,GGCACAGCUCAACACAGCGUGGCAAAGUGGCUGUGGCUAGUCUGCC,0.09
17,GGCACAGCUCAACACAGCGUGGCAAAGUGGCUGUGGCUAGCCUGCC,0.04
18,GGCACAGCUCAACACAGCGUGGCAAAGUGGCUGUGGCUAGGCUGCC,0.07
19,GGCACAGCUCAACACAGCGUGGCAAAGUCGCUGUGGCUAGACUGCC,0.05
20,GGCACAGCUCAACACAGCGUGGCAAAGUAGCUGUGGCUAGACUGCC,0.05
21,GGCACAGCUCAACACAGCGUGGCAAAGUUGCUGUGGCUAGACUGCC,0.12
22,GGCAAAGCGCAACACAGCGUGGCAAAGUGGCUGUGGCUAGACUGCC,0.27
23,GGCAAAGCACAACACAGCGUGGCAAAGUGGCUGUGGCUAGACUGCC,0.35

row,Variant,self-cleavage
1,GGCAAAGCCCAACACAGCGUGGCAAAGUGGCUGUGGCUAGACUGCC,0.04
2,GGCAAAGCUCAACACAGCGAGGCAAAGUGGCUGUGGCUAGACUGCC,0.13
3,GGCAAAGCUCAACACAGCGCGGCAAAGUGGCUGUGGCUAGACUGCC,0.06
4,GGCAAAGCUCAACACAGCGGGGCAAAGUGGCUGUGGCUAGACUGCC,0.13
5,GGCAAAGCUCAACACAGCGUGGCAAAGAGGCUGUGGCUAGACUGCC,0.12
6,GGCAAAGCUCAACACAGCGUGGCAAAGCGGCUGUGGCUAGACUGCC,0.14
7,GGCAAAGCUCAACACAGCGUGGCAAAGGGGCUGUGGCUAGACUGCC,0.2
8,GGCACAGCUCAACACAGCGUGCCAAAGUGGCUGUGGCUAGACUGCC,0.13
9,GGCACAGCUCAACACAGCGUGACAAAGUGGCUGUGGCUAGACUGCC,0.08
10,GGCACAGCUCAACACAGCGUGUCAAAGUGGCUGUGGCUAGACUGCC,0.04
11,GGCAAAGCUCAACACAGCGUGGCAAAGUGGCUGAGGCUAGACUGCC,0.07
12,GGCAAAGCUCAACACAGCGUGGCAAAGUGGCUGGGGCUAGACUGCC,0.04
13,GGCAAAGCUCAACACAGCGUGGCAAAGUGGCUGCGGCUAGACUGCC,0.08
14,GGCACAGCUCAACACAACGUGGCAAAGUGGCUGUGGCUAGACUGCC,0.04
15,GGCACAGCUCAACACAUCGUGGCAAAGUGGCUGUGGCUAGACUGCC,0.04
16,GGCACAGCUCAACACACCGUGGCAAAGUGGCUGUGGCUAGACUGCC,0.03
17,GGCACAGCUCAACGCAGCGUGGCAAAGUGGCUGUGGCUAGACUGCC,0.04
18,GGCACAGCUCAACUCAGCGUGGCAAAGUGGCUGUGGCUAGACUGCC,0.06
19,GGCACAGCUCAACCCAGCGUGGCAAAGUGGCUGUGGCUAGACUGCC,0.07
20,GGCACAGCUCAAGACAGCGUGGCAAAGUGGCUGUGGCUAGACUGCC,0.13
21,GGCACAGCUCAAAACAGCGUGGCAAAGUGGCUGUGGCUAGACUGCC,0.09
22,GGCACAGCUCAAUACAGCGUGGCAAAGUGGCUGUGGCUAGACUGCC,0.05
23,GGCACAGCUCAACACAGCGUGGCAAAGUGGCUGUGGAUAGACUGCC,0.05

row,Variant,self-cleavage
1,GGCACAGCUCAACACAGCGUGGCAAAGUGGCUGUGGUUAGACUGCC,0.09
2,GGCACAGCUCAACACAGCGUGGCAAAGUGGCUGUGGGUAGACUGCC,0.05
3,GGCACAGCUCAACACCGCGUGGCAAAGUGGCUGUGGCUAGACUGCC,0.07
4,GGCACAGCUCAACACGGCGUGGCAAAGUGGCUGUGGCUAGACUGCC,0.04
5,GGCACAGCUCAACACUGCGUGGCAAAGUGGCUGUGGCUAGACUGCC,0.04
6,GGCACAGCUCAUCACAGCGUGGCAAAGUGGCUGUGGCUAGACUGCC,0.05
7,GGCACAGCUCAGCACAGCGUGGCAAAGUGGCUGUGGCUAGACUGCC,0.05
8,GGCACAGCUCACCACAGCGUGGCAAAGUGGCUGUGGCUAGACUGCC,0.04
9,GGCACAGCUCAACACAGCGUGGCACAGUGGCUGUGGCUAGACUGCC,0.05
10,GGCACAGCUCAACACAGCGUGGCAUAGUGGCUGUGGCUAGACUGCC,0.09
11,GGCACAGCUCAACACAGCGUGGCAGAGUGGCUGUGGCUAGACUGCC,0.06
12,GGCACAGUUCAACACAGCGUGGCAAAGUGGCUGUGGCUAGACUGCC,0.11
13,GGCACAGAUCAACACAGCGUGGCAAAGUGGCUGUGGCUAGACUGCC,0.18
14,GGCACAGGUCAACACAGCGUGGCAAAGUGGCUGUGGCUAGACUGCC,0.07
15,GGCACAGCUCAACACAGCGUGGCAAAGUGGCUGUGGCUAGACUGCG,0.11
16,GGCACAGCUCAACACAGCGUGGCAAAGUGGCUGUGGCUAGACUGCA,0.09
17,GGCACAGCUCAACACAGCGUGGCAAAGUGGCUGUGGCUAGACUGCU,0.06
18,GGCACACCUCAACACAGCGUGGCAAAGUGGCUGUGGCUAGACUGCC,0.08
19,GGCACAUCUCAACACAGCGUGGCAAAGUGGCUGUGGCUAGACUGCC,0.25
20,GGCACAACUCAACACAGCGUGGCAAAGUGGCUGUGGCUAGACUGCC,0.22
21,GGCACAGCUCAACACAGCGUGGCAAAGUGGCUGUGGCUUGACUGCC,0.06
22,GGCACAGCUCAACACAGCGUGGCAAAGUGGCUGUGGCUCGACUGCC,0.07
23,GGCACAGCUCAACACAGCGUGGCAAAGUGGCUGUGGCUGGACUGCC,0.07

row,Variant,self-cleavage
1,GGCACAGCUCAACACAGCGUGGCAAAGUGGCUGUGGCUAGACUGUC,0.06
2,GGCACAGCUCAACACAGCGUGGCAAAGUGGCUGUGGCUAGACUGGC,0.05
3,GGCACAGCUCAACACAGCGUGGCAAAGUGGCUGUGGCUAGACUGAC,0.05
4,GGCAAAGCUCAACACAGCGUGGCAAAGUGGCUGUGGCUAGACAGCC,0.05
5,GGCAAAGCUCAACACAGCGUGGCAAAGUGGCUGUGGCUAGACCGCC,0.07
6,GGCAAAGCUCAACACAGCGUGGCAAAGUGGCUGUGGCUAGACGGCC,0.86
7,GGCAAAGCUCAACACAGCGUGGCAAAGUGGCUGUGGCUAGACUCCC,0.06
8,GGCAAAGCUCAACACAGCGUGGCAAAGUGGCUGUGGCUAGACUACC,0.1
9,GGCAAAGCUCAACACAGCGUGGCAAAGUGGCUGUGGCUAGACUUCC,0.07
10,GGCACAGCUUAACACAGCGUGGCAAAGUGGCUGUGGCUAGACUGCC,0.04
11,GGCACAGCUAAACACAGCGUGGCAAAGUGGCUGUGGCUAGACUGCC,0.05
12,GGCACAGCUGAACACAGCGUGGCAAAGUGGCUGUGGCUAGACUGCC,0.02
13,GGCAAAGCUCAACACAGCGUGGCAAAGUGGCGGUGGCUAGACUGCC,0.04
14,GGCAAAGCUCAACACAGCGUGGCAAAGUGGCAGUGGCUAGACUGCC,0.06
15,GGCAAAGCUCAACACAGCGUGGCAAAGUGGCCGUGGCUAGACUGCC,0.07
16,GGCACAGCUCAACAGAGCGUGGCAAAGUGGCUGUGGCUAGACUGCC,0.03
17,GGCACAGCUCAACAUAGCGUGGCAAAGUGGCUGUGGCUAGACUGCC,0.08
18,GGCACAGCUCAACAAAGCGUGGCAAAGUGGCUGUGGCUAGACUGCC,0.05
19,GGCACAGCUCAACACAGCAUGGCAAAGUGGCUGUGGCUAGACUGCC,0.14
20,GGCACAGCUCAACACAGCCUGGCAAAGUGGCUGUGGCUAGACUGCC,0.08
21,GGCACAGCUCAACACAGCUUGGCAAAGUGGCUGUGGCUAGACUGCC,0.14
22,GGCACAGCUCAACACAGCGUGGCUAAGUGGCUGUGGCUAGACUGCC,0.07
23,GGCACAGCUCAACACAGCGUGGCCAAGUGGCUGUGGCUAGACUGCC,0.04

row,Variant,self-cleavage
1,GGCACAGCUCAACACAGCGUGGCGAAGUGGCUGUGGCUAGACUGCC,0.06
2,GGCACAGCUCAACACAGCGUGGCAAAAUGGCUGUGGCUAGACUGCC,0.05
3,GGCACAGCUCAACACAGCGUGGCAAAUUGGCUGUGGCUAGACUGCC,0.09
4,GGCACAGCUCAACACAGCGUGGCAAACUGGCUGUGGCUAGACUGCC,0.06
5,GGCACAGCUCAACACAGUGUGGCAAAGUGGCUGUGGCUAGACUGCC,0.03
6,GGCACAGCUCAACACAGAGUGGCAAAGUGGCUGUGGCUAGACUGCC,0.05
7,GGCACAGCUCAACACAGGGUGGCAAAGUGGCUGUGGCUAGACUGCC,0.04
8,GGCACAGCUCAACACAGCGUGGAAAAGUGGCUGUGGCUAGACUGCC,0.07
9,GGCACAGCUCAACACAGCGUGGGAAAGUGGCUGUGGCUAGACUGCC,0.04
10,GGCACAGCUCAACACAGCGUGGUAAAGUGGCUGUGGCUAGACUGCC,0.05
11,GGCACUGCUCAACACAGCGUGGCAAAGUGGCUGUGGCUAGACUGCC,0.06
12,GGCACCGCUCAACACAGCGUGGCAAAGUGGCUGUGGCUAGACUGCC,0.23
13,GGCACGGCUCAACACAGCGUGGCAAAGUGGCUGUGGCUAGACUGCC,0.09
14,GGCACAGCUCAACACAGCGUCGCAAAGUGGCUGUGGCUAGACUGCC,0.04
15,GGCACAGCUCAACACAGCGUUGCAAAGUGGCUGUGGCUAGACUGCC,0.09
16,GGCACAGCUCAACACAGCGUAGCAAAGUGGCUGUGGCUAGACUGCC,0.1
17,GGCAAAGCUCAACACAGCGUGGCAAAGUGGCUGUGGCUAUACUGCC,0.1
18,GGCAAAGCUCAACACAGCGUGGCAAAGUGGCUGUGGCUAAACUGCC,0.11
19,GGCAAAGCUCAACACAGCGUGGCAAAGUGGCUGUGGCUACACUGCC,0.04
20,GGCACAGCUCAACACAGCGUGGCAAAGUGGCUGUGGCUAGACUGCC,0.07
